The source of these data is US20210198347A1 (Chugai, published 2021).

The target of experiment [1] is T1, Native proenzyme human C1s (Comptech A103) (human, UniProt P09871 16-688).
T1 construct: mature; Bought native protein; also called native human C1s Proenzyme; native human C1s proenzyme protein (CompTech)
T1 sequence (looked up): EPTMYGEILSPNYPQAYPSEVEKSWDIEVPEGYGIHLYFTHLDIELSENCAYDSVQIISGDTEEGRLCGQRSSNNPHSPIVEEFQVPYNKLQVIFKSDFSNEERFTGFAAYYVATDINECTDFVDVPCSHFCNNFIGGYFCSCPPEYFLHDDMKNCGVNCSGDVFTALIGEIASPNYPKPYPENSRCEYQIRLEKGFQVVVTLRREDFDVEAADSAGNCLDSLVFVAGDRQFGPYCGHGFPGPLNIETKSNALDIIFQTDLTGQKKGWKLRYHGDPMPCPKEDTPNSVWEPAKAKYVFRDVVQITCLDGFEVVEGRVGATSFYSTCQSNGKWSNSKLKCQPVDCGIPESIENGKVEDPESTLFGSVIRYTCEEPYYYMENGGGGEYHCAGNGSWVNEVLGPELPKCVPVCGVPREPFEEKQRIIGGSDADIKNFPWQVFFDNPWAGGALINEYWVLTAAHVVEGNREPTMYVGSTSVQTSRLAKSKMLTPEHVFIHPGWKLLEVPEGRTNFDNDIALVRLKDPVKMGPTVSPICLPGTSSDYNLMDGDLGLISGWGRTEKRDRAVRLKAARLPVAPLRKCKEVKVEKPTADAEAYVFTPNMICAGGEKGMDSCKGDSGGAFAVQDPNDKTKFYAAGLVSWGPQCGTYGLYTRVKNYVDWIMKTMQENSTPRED
The experiment can be described thus: SPR (BIACORE T200, 37 degrees C, pH 7.4), antibody captured by protein A/G, C1s 50 nM. The protocol:
The binding specificities of the six C1s CUB1-EGF-CUB2 binders were determined at 37 degrees C. using BIACORE® T200 instrument (GE Healthcare). Recombinant Protein A/G (Pierce) was immobilized onto all flow cells of a CM4 sensor chip using an amine coupling kit (GE Healthcare). Antibodies and analytes were prepared in 7(+) buffer (20 mM ACES, 150 mM NaCl, 1.2 mM CaCl₂, 0.05% Tween 20, 0.005% NaN₃, pH 7.4). Each antibody was captured onto the sensor surface by protein A/G. Antibody capture levels were aimed at 100 resonance unit (RU). Native proenzyme human C1s (Comptech A103) (at 50 nM as a monomer) or recombinant human C1s CCP1-CCP2-SP-His (at 100 nM as a monomer) was injected, followed by dissociation. Sensor surface was regenerated each cycle with 10 mM Glycine-HCl pH 1.5. The six C1s CUB1-EGF-CUB2 binders bound to the native proenzyme human C1s, but not recombinant human C1s CCP1-CCP2-SP-His, which is a truncated protein lacking the CUB1-EGF-CUB2 domain.
Background: SPR reads the build-up and loss of mass on a sensor chip optically.

For experiment [2], the target named is T2, recombinant human C1s CCP1-CCP2-SP-His (human, UniProt P09871 292-688).
T2 construct: Truncated protein lacking the CUB1-EGF-CUB2 domain; also called human C1s CCP1-CCP2-SP M292-D688
T2 sequence: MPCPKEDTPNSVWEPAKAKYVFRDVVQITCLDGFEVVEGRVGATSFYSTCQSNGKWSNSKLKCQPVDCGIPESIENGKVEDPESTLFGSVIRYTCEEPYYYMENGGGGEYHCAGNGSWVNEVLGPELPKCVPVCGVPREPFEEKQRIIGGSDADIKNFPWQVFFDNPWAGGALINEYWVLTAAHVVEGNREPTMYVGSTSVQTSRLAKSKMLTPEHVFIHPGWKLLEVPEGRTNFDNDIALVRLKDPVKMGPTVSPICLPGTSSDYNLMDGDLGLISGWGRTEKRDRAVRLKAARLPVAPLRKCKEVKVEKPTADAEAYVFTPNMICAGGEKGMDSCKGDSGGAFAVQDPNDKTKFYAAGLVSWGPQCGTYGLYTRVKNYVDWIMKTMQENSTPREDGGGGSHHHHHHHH
The experiment can be described thus: SPR (BIACORE T200, 37 degrees C, pH 7.4, 1.2 mM CaCl2), antibody captured by protein A/G.

Experiment [3] addresses T3, Native human C1r enzyme (Comptech A102) (human, UniProt P00736 18-705).
T3 construct: mature
T3 sequence (looked up): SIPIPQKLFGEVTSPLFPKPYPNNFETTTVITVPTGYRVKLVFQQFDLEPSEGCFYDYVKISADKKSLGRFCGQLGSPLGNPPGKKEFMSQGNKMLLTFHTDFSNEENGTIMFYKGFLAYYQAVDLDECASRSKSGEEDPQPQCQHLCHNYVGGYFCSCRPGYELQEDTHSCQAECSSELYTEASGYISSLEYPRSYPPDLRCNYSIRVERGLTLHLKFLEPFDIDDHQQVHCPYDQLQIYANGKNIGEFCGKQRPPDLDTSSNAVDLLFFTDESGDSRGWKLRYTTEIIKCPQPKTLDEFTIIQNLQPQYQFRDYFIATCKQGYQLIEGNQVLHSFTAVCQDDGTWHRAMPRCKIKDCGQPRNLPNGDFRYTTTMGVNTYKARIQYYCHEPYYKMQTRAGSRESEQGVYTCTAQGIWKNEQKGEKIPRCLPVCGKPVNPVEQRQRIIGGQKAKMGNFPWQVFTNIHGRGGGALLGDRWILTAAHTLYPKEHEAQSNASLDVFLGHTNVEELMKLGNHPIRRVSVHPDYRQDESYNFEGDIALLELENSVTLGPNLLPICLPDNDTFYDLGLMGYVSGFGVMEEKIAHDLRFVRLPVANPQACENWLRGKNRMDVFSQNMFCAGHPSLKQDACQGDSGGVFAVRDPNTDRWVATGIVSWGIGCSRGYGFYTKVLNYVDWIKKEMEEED
The experiment can be described thus: SPR (BIACORE T200, 37 degrees C, pH 7.4), antibody captured by protein A/G, C1r 25 nM as a dimer. The procedure: The binding specificities of human C1r CUB1-EGF-CUB2 binders are determined at 37 degrees C. using BIACORE® T200 instrument (GE Healthcare). Recombinant Protein A/G (Pierce) is immobilized onto all flow cells of a CM4 sensor chip using an amine coupling kit (GE Healthcare). Antibodies and analytes are prepared in 7(+) buffer (20 mM ACES, 150 mM NaCl, 1.2 mM CaCl₂, 0.05% Tween 20, 1 mg/mL BSA (IgG-free), 1 mg/mL CMD, 0.005% NaN₃, pH 7.4). Each antibody is captured onto the sensor surface by protein A/G. Antibody capture levels are aimed at 100 resonance unit (RU). Native human C1r enzyme (Comptech A102) (at 25 nM as a dimer) or recombinant human C1r CCP1-CCP2-SP-FLAG (at 50 nM as a monomer) is injected, followed by dissociation. Sensor surface is regenerated each cycle with 10 mM Glycine-HCl pH 1.5. It may be determined that C1r CUB1-EGF-CUB2 binders bound to the native human C1r enzyme , but not recombinant human C1r CCP1-CCP2-SP-FLAG, which is a truncated protein lacking the CUB1-EGF-CUB2 domain of C1r.

Where a chain is given by its changes, count along the chain named.

B1: COS0448oo-SG1148 (antibody, human IgG1, kappa, V domains shown)
VH: QSVEESGGRLVTPGTPLTLTCTVSGFSLSNYGMIWVRQAPGEGLEYIGFVSGSGSAYYANWVKGRFTISKTSTTVDLKMTSLTTEDTATYFCARGAYNTDSYSYSLYYGMDLWGPGTLVTVSS
VL: QIVMTQTPASVEVAVGGTVTIKCQASQSIYSYLSWYQQKPGQPPKLLIYGASTLASGVPSRFKGSRSGTEFTLTISDLECADAATYYCQSNYATTTTYGTFGGGTKVEIKR
notes: Rabbit B-cell derived variable regions; also called COS448; COS44800(-SG1148)
In the case of B1, the figures for the binding result in experiment [1] and in experiment [2] were “binds” and “no binding (tested: 100 nM)”, respectively.

B2: COR0205gg-SG1148 (antibody, human IgG1, kappa, V domains shown)
VH: QSLEESGGGLFKPTDTLTLTCTVSGFSLSSNAMSWVRQAPGKGLEYIGIIYLTGVTYYATWAKGRFTISKTSTTVDLKITSPTTEDTATYFCAGGEFSLWGPGTLVTVSS
VL: DIIMTQTPASVEAAVGGTVTIKCQASQGIDNYFSWHQQKPGQPPKLLIYKASTLASGVSSRFKGSGSGTEFTLTISDLECDDAATYYCQCTYGYNINDNYGNAFGGGTKVEIKR
notes: Anti-C1r antibody; also called COR205gg(-SG1148)
B2: the binding result in experiment [3] is “binds”.

B3: COR0058bb-SG1148 (antibody, human IgG1, kappa, V domains shown)
VH: QSVEESGGRLVTPGTPLTLTCTASGFDISNYNMQWVRQSPGKGLEWIGIIWSGGYTDYANWAKGRFTISATSTTVDLKSTSPTTEDTATYFCARQGANFGDYTVDLWGPGTLVTVSS
VL: AYDMTQTPASVEVAVGGTVTIKCQASQSIRSSLAWYQQKPGQRPKLLIYRASTLASGVSSRFKGSGSGTQFTLTISGVECADAATYYCQQGYSNINVDNTFGGGTKVEIKR
notes: Anti-C1r antibody
As to B3, the binding result in experiment [3] is “binds”.

B4: COS0499ee-SG1148 (antibody, human IgG1, kappa, V domains shown)
VH: QSLEESGGRLVTPGTPLTLTCTASGFSLSNYNMAWVRQAPGKGLEWIGIIETTTNTYYARWARGRFTISKTSSTTVDLQIASPTTEDTATYFCGRRVSNSHDLWGPGTLVTVSS
VL: AYDMTQTPASVSAAVGGTVTINCQASQTIGGWCAWYQQKPGQPPKLLIYKASTLASGVSSRFKGSGSGTEFALTISDLECDDAATYYCQHGYYTSSTIENTFGGGTKVEIKR
notes: also called COS499; COS499ee(-SG1148)
For the molecule B4, the figures for the binding result in experiment [1] and in experiment [2] were “binds” and “no binding (tested: 100 nM)”, respectively.

B5: COR0208cc-SG1148 (antibody, human IgG1, kappa, V domains shown)
VH: QSVEESGGRLVTPGTPLTLTCTVSGFSLSNYYMNWVRQAPGKGLEWIGIIASDDNTWYASWAKGRFTISKTSTTVDLKITSPTTEDTATYFCARDLDVGYGSGWYDLWGQGTLVTVSS
VL: AAVLTQTPSPVSVAVGGTVTINCQASQSVYNNNYLAWYQQEPGHRPKLLIYRASKLASGVPSRFSGSGSGTQFTLTISGVQCDDAATYYCLGGYDDFTDTTFGGGTKVEIKR
notes: Anti-C1r antibody; also called COR208; COR208cc(-SG1148)
Turning to B5, in experiment [3], the binding result is given as “binds”.

B6: COR0212bb-SG1148 (antibody, human IgG1, kappa, V domains shown)
VH: QEQLKESGGGLVTPGGTLTLTCTASGFSLSSYDMSWVRQAPGKGLDWIGIINTGGSAYYATWAKGRFTISKTSTTVDLKITSPTTEDTATYFCGRKINDAFDPWGPGTLVTVSS
VL: AQVLTQTPFSVSAAVGGTVTINCQASESISSNLAWYQQKPGQPPKLLIYDASDLASGVPSRFKGSGSGKQFTLTISGVQCDDAATYFCQHGWIYDTIDSNCFGGGTKVEIKR
notes: Anti-C1r antibody
B6: the binding result in experiment [3] is on record as “binds”.

B7: COR0011bb-SG1148 (antibody, human IgG1, kappa, V domains shown)
VH: QSLEESGGRLVTPGTPLTLTCTASGFTFSGYYMCWVRQTPGKGLEYIGIIASSGNTYYANWAKGRFTISKTSSTTVDLKMTSLTTEDTATYFCAKPESDYVNGMGLWGPGTLVTVSS
VL: DIVMTQTPASVSDPVGGTVTIKCQASQSIYNLLSWYQQKPGQRPKLLIYDASKLASGVPSRFKGSGYGTDFTLTISDLGCADAATYYCQSNYGYSRTDDTFFYGFGGGTKVEIKR
notes: Anti-C1r antibody
As for B7, the binding result in experiment [3] was “binds”.

B8: COS0547gg-SG1148 (antibody, human IgG1, kappa, V domains shown)
VH: QSLEESGGRLVTPGTPLTLTCTASGFSLSSYHMDWVRQAPGKGLEWIGIITYTGDTYYATWAKGRFTISKTSSTTVDLKMASLTTEDTATYFCARRQYDAYNVWGPGTLVTVSS
VL: AYDMTQTPASVEVAVGGTVTIKCQASQSINNYLAWYQQKPGQPPKLLIYYASTLASGVPSRFKGSRSGTEFTLTISGVECADAATYYCQHGYYTSSNIDSVFGGGTKVEIKR
For the molecule B8, the binding result is “binds” in experiment [1] and “no binding (tested: 100 nM)” in experiment [2].

B9: COR0067ff-SG1148 (antibody, human IgG1, kappa, V domains shown)
VH: QSLEESGGGLVQPEGSLTLTCKASGIDFSSNAMCWVRQAPGKGLEWIGCIYTGSTTIWYASWAKGRFTISKTSSTTVTLQLNSLTVADTATYFCARRDSSSGYAFKLWGPGTLVTVSS
VL: DIVMTQTPSSVSAAVGGTVTIKCQASENIYSNLAWYQQKSGQPPNLLIYGASTLESGVPSRFKGSGSGTEFTLTISDLECADAAIYYCQCTYDDSSTFGGGTKVEIKR
notes: Anti-C1r antibody
As for B9, the binding result in experiment [3] is on record as “binds”.

B10: COR0338gg-SG1148 (antibody, human IgG1, kappa, V domains shown)
VH: B9 VH with G48A, S61T, D98A
VL: B9 VL with I2V, S9F, N28S, S40P, A81D
notes: Anti-C1r antibody
With B10, in experiment [3], the binding result is recorded as “binds”.

B11: COR0278bb-SG1148 (antibody, human IgG1, kappa, V domains shown)
VH: QSLEESGGRLVTPGTPLTLTCTASGFSLSSYDMTWVRQAPGKGLEWIGIIYTLGSAYYASWAKGRFTISRTSTTVDLKMTSPTTEDTATYFCARGGDSYGAVDTAFDLWGPGTLVTVSS
VL: AQVLTQTPSPVSAAVGGTVTISCQSSPSVYSNYLSWYQQKPGQPPKLLIYRASRLASGVPSRFKGSGSGTQFTLTISEVQCDDAATYYCQGYFGNGINAFGGGTKVEIKR
notes: Anti-C1r antibody
In the case of B11, the binding result in experiment [3] is “binds”.
